Source: article PMC3961337 (2014)

T1: zinc-binding anti-sigma (ZAS) protein RsrA (S. coelicolor M145, UniProt Q7AKG8 1-105)
T1 chain: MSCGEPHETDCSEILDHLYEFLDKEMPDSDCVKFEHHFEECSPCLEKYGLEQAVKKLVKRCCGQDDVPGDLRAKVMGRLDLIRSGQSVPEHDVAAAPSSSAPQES

T2: rsrA-cfp-pET28a (+) protein (RCP) (S. coelicolor M145, UniProt Q7AKG8 1-105)
T2 chain: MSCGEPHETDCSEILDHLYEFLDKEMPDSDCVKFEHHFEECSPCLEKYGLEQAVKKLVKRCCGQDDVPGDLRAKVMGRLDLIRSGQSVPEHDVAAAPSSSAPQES


Tests used:
[1] = biological target: T1, zinc-binding anti-sigma (ZAS) protein …; assay: BLI
[2] = biological target: T2, rsrA-cfp-pET28a (+) protein (RCP); assay: BLI

Binder | Kd [1] [nM] | Kd [2] [nM]
sigma factor σ^R (natural protein, biotinylated before capture on streptavidin biosensor tips) not shown | 47 | 72
sigR-yfp-pET28a (+) protein (SYP) (natural protein, biotinylated for the biolayer interferometry only) not shown | 52 | 
